# Publication PMC12416549 (2024)
# T1: TNFR1 (Homo sapiens, UniProt P19438)
# T1 chain: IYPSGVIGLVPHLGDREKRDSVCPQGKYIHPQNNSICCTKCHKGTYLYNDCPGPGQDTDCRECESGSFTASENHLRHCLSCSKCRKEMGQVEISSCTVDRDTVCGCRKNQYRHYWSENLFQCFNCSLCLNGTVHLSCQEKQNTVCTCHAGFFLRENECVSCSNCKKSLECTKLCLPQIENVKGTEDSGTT
# Biological target: T1, TNFR1
# Experiment: yeast display SC50
row,Binder,apparent Kd (screen) [nM]
1,S47A (designed binder) MTLQELLREEALRRAEAEAFRYALELLAEKFPEQKEYLLDLAEEIEAQIRSLSGVDVEDVRKFLDKEWAWVKELLAEHPAELAEVEAARAARLAELRAEVEAKVAA,0.49
2,S47D (designed binder) MTLQELLREEALRRAEAEAFRYALELLAEKFPEQKEYLLDLAEEIEDQIRSLSGVDVEDVRKFLDKEWAWVKELLAEHPAELAEVEAARAARLAELRAEVEAKVAA,1.27
3,S53P (designed binder) MTLQELLREEALRRAEAEAFRYALELLAEKFPEQKEYLLDLAEEIESQIRSLPGVDVEDVRKFLDKEWAWVKELLAEHPAELAEVEAARAARLAELRAEVEAKVAA,13.8
4,A42M (designed binder) MTLQELLREEALRRAEAEAFRYALELLAEKFPEQKEYLLDLMEEIESQIRSLSGVDVEDVRKFLDKEWAWVKELLAEHPAELAEVEAARAARLAELRAEVEAKVAA,2.48
5,L24W (designed binder) MTLQELLREEALRRAEAEAFRYAWELLAEKFPEQKEYLLDLAEEIESQIRSLSGVDVEDVRKFLDKEWAWVKELLAEHPAELAEVEAARAARLAELRAEVEAKVAA,4.83
6,E46A (designed binder) MTLQELLREEALRRAEAEAFRYALELLAEKFPEQKEYLLDLAEEIASQIRSLSGVDVEDVRKFLDKEWAWVKELLAEHPAELAEVEAARAARLAELRAEVEAKVAA,0.49
7,L7H (designed binder) MTLQELHREEALRRAEAEAFRYALELLAEKFPEQKEYLLDLAEEIESQIRSLSGVDVEDVRKFLDKEWAWVKELLAEHPAELAEVEAARAARLAELRAEVEAKVAA,7.07
8,L38K (designed binder) MTLQELLREEALRRAEAEAFRYALELLAEKFPEQKEYKLDLAEEIESQIRSLSGVDVEDVRKFLDKEWAWVKELLAEHPAELAEVEAARAARLAELRAEVEAKVAA,4.39
9,F20G (designed binder) MTLQELLREEALRRAEAEAGRYALELLAEKFPEQKEYLLDLAEEIESQIRSLSGVDVEDVRKFLDKEWAWVKELLAEHPAELAEVEAARAARLAELRAEVEAKVAA,0.869

# More lines, now with the values ahead:
row,apparent Kd (screen) [nM],Binder
1,0.49,E95C (designed binder) MTLQELLREEALRRAEAEAFRYALELLAEKFPEQKEYLLDLAEEIESQIRSLSGVDVEDVRKFLDKEWAWVKELLAEHPAELAEVEAARAARLACLRAEVEAKVAA
2,26.9,R61P (designed binder) MTLQELLREEALRRAEAEAFRYALELLAEKFPEQKEYLLDLAEEIESQIRSLSGVDVEDVPKFLDKEWAWVKELLAEHPAELAEVEAARAARLAELRAEVEAKVAA
3,0.79,D65Q (designed binder) MTLQELLREEALRRAEAEAFRYALELLAEKFPEQKEYLLDLAEEIESQIRSLSGVDVEDVRKFLQKEWAWVKELLAEHPAELAEVEAARAARLAELRAEVEAKVAA
4,1.4,D56Q (designed binder) MTLQELLREEALRRAEAEAFRYALELLAEKFPEQKEYLLDLAEEIESQIRSLSGVQVEDVRKFLDKEWAWVKELLAEHPAELAEVEAARAARLAELRAEVEAKVAA
5,0.956,A87P (designed binder) MTLQELLREEALRRAEAEAFRYALELLAEKFPEQKEYLLDLAEEIESQIRSLSGVDVEDVRKFLDKEWAWVKELLAEHPAELAEVEPARAARLAELRAEVEAKVAA
